Patent US6146862A

Substrate: NC(=O)C1=CN([C@@H]2O[C@H](COP(=O)(O)OP(=O)(O)OC[C@H]3O[C@@H](n4cnc5c(N)ncnc54)[C@H](O)[C@@H]3O)[C@@H](O)[C@H]2O)C=CC1
Experiment: purified protein, by the assay type
Conditions: other: recombinant enzyme purified from E. coli JM109/pSDE1, assay 50 mM Tris-HCl pH 8.5, 0.06 mM DCIP, 30° C.

B1: Bacillus stearothermophilus UK-563 thermostable diaphorase, recombinant (E. coli JM109/pSDE1), SEQ ID No.1 (Geobacillus stearothermophilus) (protein)
chain: MTNVLYITAHPHDDTQSYSMAVGKAFIDTYKQVHPDHEVIHLDLYKEYIPEIDVDVFSGWGKLRSGKSFEELSDEEKAKVGRMNELCEQFISADKYVFVTPMWNFSFPPVLKAYIDAVAVAGKTFKYTEQGPVGLLTDKKALHIQARGGFYSEGPAAEMEMGHRYLSVIMQFFGVPSFEGLFVEGHAAVPEKAEEIKANAIARAKDLAHTF
Q: Which Km does the source give for B1 here?
A: 500 µM
